From IntAct's records for PubMed 29892012

B1: Rho guanine nucleotide exchange factor 3 (Homo sapiens), Q9NR81 (parent)
chain: MVAKDYPFYLTVKRANCSLELPPASGPAKDAEEPSNKRVKPLSRVTSLANLIPPVKATPLKRFSQTLQRSISFRSESRPDILAPRPWSRNAAPSSTKRRDSKLWSETFDVCVNQMLTSKEIKRQEAIFELSQGEEDLIEDLKLAKKAYHDPMLKLSIMTEQELNQIFGTLDSLIPLHEELLSQLRDVRKPDGSTEHVGPILVGWLPCLSSYDSYCSNQVAAKALLDHKKQDHRVQDFLQRCLESPFSRKLDLWNFLDIPRSRLVKYPLLLREILRHTPNDNPDQQHLEEAINIIQGIVAEINTKTGESECRYYKERLLYLEEGQKDSLIDSSRVLCCHGELKNNRGVKLHVFLFQEVLVITRAVTHNEQLCYQLYRQPIPVKDLLLEDLQDGEVRLGGSLRGAFSNNERIKNFFRVSFKNGSQSQTHSLQANDTFNKQQWLNCIRQAKETVLCAAGQAGVLDSEGSFLNPTTGSRELQGETKLEQMDQSDSESDCSMDTSEVSLDCERMEQTDSSCGNSRHGESNV
partner: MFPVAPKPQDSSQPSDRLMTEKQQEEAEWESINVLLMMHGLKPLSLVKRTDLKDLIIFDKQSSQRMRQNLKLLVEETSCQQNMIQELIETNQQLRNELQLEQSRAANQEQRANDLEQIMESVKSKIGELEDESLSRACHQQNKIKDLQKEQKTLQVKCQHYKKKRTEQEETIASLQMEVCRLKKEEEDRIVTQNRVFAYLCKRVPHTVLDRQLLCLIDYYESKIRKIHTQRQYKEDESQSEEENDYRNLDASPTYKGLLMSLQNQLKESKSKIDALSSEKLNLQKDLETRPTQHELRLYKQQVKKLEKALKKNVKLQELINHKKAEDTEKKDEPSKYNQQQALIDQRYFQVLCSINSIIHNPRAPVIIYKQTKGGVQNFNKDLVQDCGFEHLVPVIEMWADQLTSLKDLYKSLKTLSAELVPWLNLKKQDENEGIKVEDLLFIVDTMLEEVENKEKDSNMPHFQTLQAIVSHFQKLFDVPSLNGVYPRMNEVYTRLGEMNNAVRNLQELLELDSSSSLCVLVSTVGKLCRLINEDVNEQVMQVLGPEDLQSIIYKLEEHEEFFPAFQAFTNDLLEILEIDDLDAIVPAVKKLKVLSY
B2: E3 ubiquitin-protein ligase LNX (Homo sapiens), Q8TBB1 (parent)
chain: MNQPESANDPEPLCAVCGQAHSLEENHFYSYPEEVDDDLICHICLQALLDPLDTPCGHTYCTLCLTNFLVEKDFCPMDRKPLVLQHCKKSSILVNKLLNKLLVTCPFREHCTQVLQRCDLEHHFQTSCKGASHYGLTKDRKRRSQDGCPDGCASLTATAPSPEVSAAATISLMTDEPGLDNPAYVSSAEDGQPAISPVDSGRSNRTRARPFERSTIRSRSFKKINRALSVLRRTKSGSAVANHADQGRENSENTTAPEVFPRLYHLIPDGEITSIKINRVDPSESLSIRLVGGSETPLVHIIIQHIYRDGVIARDGRLLPGDIILKVNGMDISNVPHNYAVRLLRQPCQVLWLTVMREQKFRSRNNGQAPDAYRPRDDSFHVILNKSSPEEQLGIKLVRKVDEPGVFIFNVLDGGVAYRHGQLEENDRVLAINGHDLRYGSPESAAHLIQASERRVHLVVSRQVRQRSPDIFQEAGWNSNGSWSPGPGERSNTPKPLHPTITCHEKVVNIQKDPGESLGMTVAGGASHREWDLPIYVISVEPGGVISRDGRIKTGDILLNVDGVELTEVSRSEAVALLKRTSSSIVLKALEVKEYEPQEDCSSPAALDSNHNMAPPSDWSPSWVMWLELPRCLYNCKDIVLRRNTAGSLGFCIVGGYEEYNGNKPFFIKSIVEGTPAYNDGRIRCGDILLAVNGRSTSGMIHACLARLLKELKGRITLTIVSWPGTFL
partner: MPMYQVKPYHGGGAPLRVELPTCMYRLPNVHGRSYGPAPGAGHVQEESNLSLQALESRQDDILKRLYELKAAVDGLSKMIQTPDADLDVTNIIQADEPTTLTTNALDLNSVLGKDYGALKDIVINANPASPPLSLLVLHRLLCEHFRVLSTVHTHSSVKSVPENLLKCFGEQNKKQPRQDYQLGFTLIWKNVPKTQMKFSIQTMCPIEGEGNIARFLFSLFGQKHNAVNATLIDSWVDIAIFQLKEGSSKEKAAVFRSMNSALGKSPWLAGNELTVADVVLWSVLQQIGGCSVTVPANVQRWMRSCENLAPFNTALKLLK
B3: Histone-lysine N-methyltransferase SETD5 (Homo sapiens), Q9C0A6 (parent)
chain: MSIAIPLGVTTSDTSYSDMAAGSDPESVEASPAVNEKSVYSTHNYGTTQRHGCRGLPYATIIPRSDLNGLPSPVEERCGDSPNSEGETVPTWCPCGLSQDGFLLNCDKCRGMSRGKVIRLHRRKQDNISGGDSSATESWDEELSPSTVLYTATQHTPTSITLTVRRTKPKKRKKSPEKGRAAPKTKKIKNSPSEAQNLDENTTEGWENRIRLWTDQYEEAFTNQYSADVQNALEQHLHSSKEFVGKPTILDTINKTELACNNTVIGSQMQLQLGRVTRVQKHRKILRAARDLALDTLIIEYRGKVMLRQQFEVNGHFFKKPYPFVLFYSKFNGVEMCVDARTFGNDARFIRRSCTPNAEVRHMIADGMIHLCIYAVSAITKDAEVTIAFDYEYSNCNYKVDCACHKGNRNCPIQKRNPNATELPLLPPPPSLPTIGAETRRRKARRKELEMEQQNEASEENNDQQSQEVPEKVTVSSDHEEVDNPEEKPEEEKEEVIDDQENLAHSRRTREDRKVEAIMHAFENLEKRKKRRDQPLEQSNSDVEITTTTSETPVGEETKTEAPESEVSNSVSNVTIPSTPQSVGVNTRRSSQAGDIAAEKLVPKPPPAKPSRPRPKSRISRYRTSSAQRLKRQKQANAQQAELSQAALEEGGSNSLVTPTEAGSLDSSGENRPLTGSDPTVVSITGSHVNRAASKYPKTKKYLVTEWLNDKAEKQECPVECPLRITTDPTVLATTLNMLPGLIHSPLICTTPKHYIRFGSPFIPERRRRPLLPDGTFSSCKKRWIKQALEEGMTQTSSVPQETRTQHLYQSNENSSSSSICKDNADLLSPLKKWKSRYLMEQNVTKLLRPLSPVTPPPPNSGSKSPQLATPGSSHPGEEECRNGYSLMFSPVTSLTTASRCNTPLQFELCHRKDLDLAKVGYLDSNTNSCADRPSLLNSGHSDLAPHPSLGPTSETGFPSRSGDGHQTLVRNSDQAFRTEFNLMYAYSPLNAMPRADGLYRGSPLVGDRKPLHLDGGYCSPAEGFSSRYEHGLMKDLSRGSLSPGGERACEGVPSAPQNPPQRKKVSLLEYRKRKQEAKENSAGGGGDSAQSKSKSAGAGQGSSNSVSDTGAHGVQGSSARTPSSPHKKFSPSHSSMSHLEAVSPSDSRGTSSSHCRPQENISSRWMVPTSVERLREGGSIPKVLRSSVRVAQKGEPSPTWESNITEKDSDPADGEGPETLSSALSKGATVYSPSRYSYQLLQCDSPRTESQSLLQQSSSPFRGHPTQSPGYSYRTTALRPGNPPSHGSSESSLSSTSYSSPAHPVSTDSLAPFTGTPGYFSSQPHSGNSTGSNLPRRSCPSSAASPTLQGPSDSPTSDSVSQSSTGTLSSTSFPQNSRSSLPSDLRTISLPSAGQSAVYQASRVSAVSNSQHYPHRGSGGVHQYRLQPLQGSGVKTQTGLS
partner: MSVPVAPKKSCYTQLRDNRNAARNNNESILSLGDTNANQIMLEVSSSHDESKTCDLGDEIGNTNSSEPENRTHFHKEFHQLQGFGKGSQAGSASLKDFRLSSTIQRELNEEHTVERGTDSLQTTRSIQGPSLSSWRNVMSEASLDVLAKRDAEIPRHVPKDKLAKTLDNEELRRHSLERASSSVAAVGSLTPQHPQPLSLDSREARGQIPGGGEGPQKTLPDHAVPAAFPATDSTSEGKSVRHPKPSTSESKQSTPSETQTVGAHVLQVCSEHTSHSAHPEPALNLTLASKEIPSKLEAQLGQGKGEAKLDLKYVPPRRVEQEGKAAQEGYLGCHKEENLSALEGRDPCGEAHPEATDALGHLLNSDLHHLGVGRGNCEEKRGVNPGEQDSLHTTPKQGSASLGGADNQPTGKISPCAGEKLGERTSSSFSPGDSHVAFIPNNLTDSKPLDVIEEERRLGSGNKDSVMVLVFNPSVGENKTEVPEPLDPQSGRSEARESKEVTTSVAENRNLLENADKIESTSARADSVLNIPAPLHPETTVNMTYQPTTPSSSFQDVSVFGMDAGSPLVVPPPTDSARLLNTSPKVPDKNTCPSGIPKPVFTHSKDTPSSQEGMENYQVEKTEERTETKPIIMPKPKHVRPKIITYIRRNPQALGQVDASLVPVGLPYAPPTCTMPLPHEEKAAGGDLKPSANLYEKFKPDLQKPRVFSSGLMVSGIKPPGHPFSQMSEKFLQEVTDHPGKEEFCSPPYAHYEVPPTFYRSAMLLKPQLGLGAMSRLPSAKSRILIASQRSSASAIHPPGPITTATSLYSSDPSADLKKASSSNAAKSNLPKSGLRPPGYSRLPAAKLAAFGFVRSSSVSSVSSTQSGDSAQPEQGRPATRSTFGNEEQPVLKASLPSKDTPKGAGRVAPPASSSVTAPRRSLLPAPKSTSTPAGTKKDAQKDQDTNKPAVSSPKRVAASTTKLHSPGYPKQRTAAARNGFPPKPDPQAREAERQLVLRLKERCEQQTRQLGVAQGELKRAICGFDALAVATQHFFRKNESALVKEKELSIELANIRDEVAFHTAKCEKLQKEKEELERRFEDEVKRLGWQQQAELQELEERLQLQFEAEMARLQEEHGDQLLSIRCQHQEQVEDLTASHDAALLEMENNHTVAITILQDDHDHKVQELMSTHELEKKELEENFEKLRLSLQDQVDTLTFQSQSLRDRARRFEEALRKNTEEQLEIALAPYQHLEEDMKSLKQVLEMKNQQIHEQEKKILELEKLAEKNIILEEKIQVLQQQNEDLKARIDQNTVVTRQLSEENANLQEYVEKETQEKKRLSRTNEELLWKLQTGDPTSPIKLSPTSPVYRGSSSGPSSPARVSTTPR
B4: Coiled-coil alpha-helical rod protein 1 (Homo sapiens), Q8TD31 (parent)
chain: MFPPSGSTGLIPPSHFQARPLSTLPRMAPTWLSDIPLVQPPGHQDVSERRLDTQRPQVTMWERDVSSDRQEPGRRGRSWGLEGSQALSQQAEVIVRQLQELRRLEEEVRLLRETSLQQKMRLEAQAMELEALARAEKAGRAEAEGLRAALAGAEVVRKNLEEGSQRELEEVQRLHQEQLSSLTQAHEEALSSLTSKAEGLEKSLSSLETRRAGEAKELAEAQREAELLRKQLSKTQEDLEAQVTLVENLRKYVGEQVPSEVHSQTWELERQKLLETMQHLQEDRDSLHATAELLQVRVQSLTHILALQEEELTRKVQPSDSLEPEFTRKCQSLLNRWREKVFALMVQLKAQELEHSDSVKQLKGQVASLQEKVTSQSQEQAILQRSLQDKAAEVEVERMGAKGLQLELSRAQEARRRWQQQTASAEEQLRLVVNAVSSSQIWLETTMAKVEGAAAQLPSLNNRLSYAVRKVHTIRGLIARKLALAQLRQESCPLPPPVTDVSLELQQLREERNRLDAELQLSARLIQQEVGRAREQGEAERQQLSKVAQQLEQELQQTQESLASLGLQLEVARQGQQESTEEAASLRQELTQQQELYGQALQEKVAEVETRLREQLSDTERRLNEARREHAKAVVSLRQIQRRAAQEKERSQELRRLQEEARKEEGQRLARRLQELERDKNLMLATLQQEGLLSRYKQQRLLTVLPSLLDKKKSVVSSPRPPECSASAPVAAAVPTRESIKGSLSVLLDDLQDLSEAISKEEAVCQGDNLDRCSSSNPQMSS
partner: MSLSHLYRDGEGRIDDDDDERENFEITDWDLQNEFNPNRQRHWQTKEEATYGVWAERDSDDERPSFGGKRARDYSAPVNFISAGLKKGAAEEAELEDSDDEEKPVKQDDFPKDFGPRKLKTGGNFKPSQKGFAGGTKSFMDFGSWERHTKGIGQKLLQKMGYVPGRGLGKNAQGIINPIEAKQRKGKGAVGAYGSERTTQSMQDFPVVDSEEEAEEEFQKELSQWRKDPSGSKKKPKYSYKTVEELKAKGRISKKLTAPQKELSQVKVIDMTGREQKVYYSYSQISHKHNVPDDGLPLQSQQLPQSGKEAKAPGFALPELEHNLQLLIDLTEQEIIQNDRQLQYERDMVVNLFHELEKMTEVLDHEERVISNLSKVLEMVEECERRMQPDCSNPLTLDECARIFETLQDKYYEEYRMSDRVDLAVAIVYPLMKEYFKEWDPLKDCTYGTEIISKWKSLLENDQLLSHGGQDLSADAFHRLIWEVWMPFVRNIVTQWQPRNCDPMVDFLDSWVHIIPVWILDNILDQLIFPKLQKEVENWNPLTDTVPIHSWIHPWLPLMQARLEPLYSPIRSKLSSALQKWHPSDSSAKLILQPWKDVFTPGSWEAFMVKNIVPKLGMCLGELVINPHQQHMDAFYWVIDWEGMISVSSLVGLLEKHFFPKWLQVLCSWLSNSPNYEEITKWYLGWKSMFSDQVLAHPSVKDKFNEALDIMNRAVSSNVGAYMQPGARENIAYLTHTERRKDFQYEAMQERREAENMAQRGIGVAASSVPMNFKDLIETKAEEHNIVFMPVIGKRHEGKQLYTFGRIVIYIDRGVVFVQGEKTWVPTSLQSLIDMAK

Variants of: B1
Conditions: with cep70_human CEP70, Q8NHQ1
For P34S, the “effect of a mutation on the interaction” value was “with no effect”.

Variants of: B2
Conditions: with aimp2_human AIMP2, Q13155
With E295K the “effect of a mutation on the interaction” value was “disrupting interaction strength”.

Variants of: B3
Conditions: with mtus2_human MTUS2, Q5JR59
For G669R, the “effect of a mutation on the interaction” value was “with no effect”.

Variants of: B4
Conditions: with tfp11_human TFIP11, Q9UBB9
W337R was tested, and the “effect of a mutation on the interaction” value was “with no effect”.
